Target: GST-FKBP12
Assay: AUC; sedimentation equilibrium of GST-FKBP12, seven serial two-fold dilutions from 320 µM, 3000-12 000 r.p.m., about 14 h, absorbance at 230 and 280 nm, Sedphat

GST-FKBP12
stoichiometry N: 2
